# Source: paper PMC5780253 (Biochimica et biophysica acta, 2017)
# B1: human apical sodium-dependent bile acid transporter, wild type (wt-hASBT) (natural protein, UniProt Q12908 1-348, looked up)
# chain: MNDPNSCVDNATVCSGASCVVPESNFNNILSVVLSTVLTILLALVMFSMGCNVEIKKFLGHIKRPWGICVGFLCQFGIMPLTGFILSVAFDILPLQAVVVLIIGCCPGGTASNILAYWVDGDMDLSVSMTTCSTLLALGMMPLCLLIYTKMWVDSGSIVIPYDNIGTSLVSLVVPVSIGMFVNHKWPQKAKIILKIGSIAGAILIVLIAVVGGILYQSAWIIAPKLWIIGTIFPVAGYSLGFLLARIAGLPWYRCRTVAFETGMQNTQLCSTIVQLSFTPEELNVVFTFPLIYSIFQLAFAAIFLGFYVAYKKCHGKNKAEIPESKENGTEPESSFYKANGGFQPDEK
# modifications: N-glycosylated at Asn10 (glycosylated ~41 kDa and non-glycosylated ~37 kDa forms both seen)
# Biological target: the molecule itself
# Experiment: SDS-PAGE and Western blot of cell lysate without cross-linker
protein,measurement,value
B1,stoichiometry N,2
